Source: publication PMC10899662, “TopBP1 utilises a bipartite GINS binding mode to support genome replication” (Nature Communications, 2024)

System: DNA replication in Xenopus egg extracts
Test: Replication assay in TopBP1-immunodepleted Xenopus egg extract (α-32P-dCTP incorporation)
Type: biochemical, Xenopus laevis
Conditions: for ability to support replication (words): 6 ng/µl recombinant TopBP1 added to TopBP1-immunodepleted extract, 23 °C
Procedure: Fig. 5 Both GINS binding surfaces in TopBP1 cooperate in supporting genome replication. a Immobilized recombinant Flag-GINS or Flag peptide-coupled beads were used to pulldown the indicated recombinant TopBP1-BRCT0-5-strep versions (Figs. 1a and 3a) using 100 mM NaAc in the binding buffer. The pulldown was analysed by immunoblotting. […] Estimations were done for the binding interfaces involving TopBP1-GINI (blue) and TopBP1-BRCT4 (red), both together and alone. c Coomassie-stained SDS PAGE gel of the indicated recombinant TopBP1-BRCT0-5 proteins (Figs. 1a(ii) and 3a). d The indicated relative amounts (100%–10%) of immunodepleted and non-depleted Xenopus egg extracts (Xtract) were analysed by immunoblotting using anti-TopBP1 #2 and other indicated antibodies. TopBP1 antibodies #1 and #2, or unspecific IgG (mock) were used for immunodepletions. Ponc, ponceau staining. Error bars, SEM, n = 3. The experiments were done more than three times (i) or twice (ii) with similar results. e, f Replication analyses (radioactive nucleotide incorporation) using Xenopus egg extracts immunodepleted with antibodies anti-TopBP1#1, #2 or unspecific IgG (mock). Buffer (buf), recombinant wild-type (WT) or mutant TopBP1-BRCT0-5-strep (c) were added. Diamonds, Individual data points of n = 3 independent experiments, Error bars, SEM. Source data are provided as a Source data file.
Xenopus laevis egg extracts were prepared from metaphase II arrested eggs as described in ref. [79]. After washing with MMR (100 mM NaCl, 2 mM KCl, 1 mM MgCl2, 2 mM CaCl2, 0.1 mM EDTA, 5 mM HEPES–NaOH, pH 7.8) eggs were dejellied (2% cysteine w:v in H2O, pH 7.8 with NaOH). Eggs were rinsed in XBE2 (100 mM KCl, 2 mM MgCl2, 0.1 mM CaCl2, 1.71% w:v sucrose, 5 mM K-EGTA, 10 mM HEPES–KOH, pH 7.7). Then, the eggs were transferred into centrifuge tubes containing 1 ml XBE2 + 10 µg/ml protease inhibitor (aprotinin Sigma A6279, leupeptin Merck 108975, pepstatin Carl Roth 2936.1) + 100 µg/ml cytochalasin D (Sigma C8273). For packing, eggs were centrifuged for 1 min at 1400 × g at 16 °C in a swingout rotor. Excess buffer, activated and apoptotic eggs were removed before crushing the eggs at 16,000 × g for 10 min at 16 °C. The extract was collected with a 20 G needle and supplemented with 10 µg/ml cytochalasin D, 10 µg/ml protease inhibitors, 1:80 dilution of energy regenerator (1M phosphocreatine K salt, 600 µg/ml creatine phosphokinase in 10 mM HEPES–KOH pH 7.6) and LFB1/50 (10% w-v sucrose, 50 mM KCl, 2 mM MgCl2, 1 mM EGTA, 2 mM DTT, 20 mM K2HPO4/KH2PO4 pH 8.0, 40 mM HEPES–KOH, pH 8.0) to 15% (v:v). The extract was cleared at 84,000 × g at 4 °C for 20 min in a swingout rotor. The cytoplasmatic layer was collected and supplemented with 2% glycerol v:v. […]

Row | Molecule | ability to support replication (words) | ability to support replication (words) (listed as B4mut) | reduction in nucleotide incorporation (120 min time point, TopBP1-immunodepleted Xenopus egg extract, 6 ng/µl protein) [%]
1 | TopBP1-BRCT0-5-WT: recombinant TopBP1 amino acids 1–766, strep-tagged (protein, left off: Strep, C-terminal, kept, recombinant TopBP1 amino acids 1–766, strep-tagged) MSRNDKEPFFVKFLKSSDNSKCFFKALESIKEFQSEEYLQIITEEEALKIKENDRSLYICDPFSGVVFDHLKKLGCRIVGPQVVIFCMHHQRCVPRAEHPVYNMVMSDVTISCTSLEKEKREEVHKYVQMMGGRVYRDLNVSVTHLIAGEVGSKKYLVAANLKKPILLPSWIKTLWEKSQEKKITRYTDINMEDFKCPIFLGCIICVTGLCGLDRKEVQQLTVKHGGQYMGQLKMNECTHLIVQEPKGQKYECAKRWNVHCVTTQWFFDSIEKGFCQDESIYKTEPRPEAKTMPNSSTPTSQINTIDSRTLSDVSNISNINASCVSESICNSLNSKLEPTLENLENLDVSAFQAPEDLLDGCRIYLCGFSGRKLDKLRRLINSGGGVRFNQLNEDVTHVIVGDYDDELKQFWNKSAHRPHVVGAKWLLECFSKGYMLSEEPYIHANYQPVEIPVSHKPESKAALLKKKNSSFSKKDFAPSEKHEQADEDLLSQYENGSSTVVEAKTSEARPFNDSTHAEPLNDSTHISLQEENQSSVSHCVPDVSTITEEGLFSQKSFLVLGFSNENESNIANIIKENAGKIMSLLSRTVADYAVVPLLGCEVEATVGEVVTNTWLVTCIDYQTLFDPKSNPLFTPVPVMTGMTPLEDCVISFSQCAGAEKESLTFLANLLGASVQEYFVRKSNAKKGMFASTHLILKERGGSKYEAAKKWNLPAVTIAWLLETARTGKRADESHFLIENSTKEERSLETEITNGINLNSDTAEHP | effectively rescued replication in depleted extracts |  | 
2 | TopBP1-B4mut: Val590, Thr606 and Val610 mutated to glutamate, arginine and glutamate (protein, left off: Strep, C-terminal, kept) MSRNDKEPFFVKFLKSSDNSKCFFKALESIKEFQSEEYLQIITEEEALKIKENDRSLYICDPFSGVVFDHLKKLGCRIVGPQVVIFCMHHQRCVPRAEHPVYNMVMSDVTISCTSLEKEKREEVHKYVQMMGGRVYRDLNVSVTHLIAGEVGSKKYLVAANLKKPILLPSWIKTLWEKSQEKKITRYTDINMEDFKCPIFLGCIICVTGLCGLDRKEVQQLTVKHGGQYMGQLKMNECTHLIVQEPKGQKYECAKRWNVHCVTTQWFFDSIEKGFCQDESIYKTEPRPEAKTMPNSSTPTSQINTIDSRTLSDVSNISNINASCVSESICNSLNSKLEPTLENLENLDVSAFQAPEDLLDGCRIYLCGFSGRKLDKLRRLINSGGGVRFNQLNEDVTHVIVGDYDDELKQFWNKSAHRPHVVGAKWLLECFSKGYMLSEEPYIHANYQPVEIPVSHKPESKAALLKKKNSSFSKKDFAPSEKHEQADEDLLSQYENGSSTVVEAKTSEARPFNDSTHAEPLNDSTHISLQEENQSSVSHCVPDVSTITEEGLFSQKSFLVLGFSNENESNIANIIKENAGKIMSLLSRTEADYAVVPLLGCEVEARVGEEVTNTWLVTCIDYQTLFDPKSNPLFTPVPVMTGMTPLEDCVISFSQCAGAEKESLTFLANLLGASVQEYFVRKSNAKKGMFASTHLILKERGGSKYEAAKKWNLPAVTIAWLLETARTGKRADESHFLIENSTKEERSLETEITNGINLNSDTAEHP | not detectably compromised in their abilities to support replication | do not aﬀect grossly the replica+on-inducing | 
3 | TopBP1-Gpp: TopBP1-BRCT0-5, central leucine-leucine motif mutated to two consecutive prolines (protein, left off: Strep, C-terminal, kept, TopBP1-BRCT0-5, central leucine-leucine motif mutated to two consecutive prolines) MSRNDKEPFFVKFLKSSDNSKCFFKALESIKEFQSEEYLQIITEEEALKIKENDRSLYICDPFSGVVFDHLKKLGCRIVGPQVVIFCMHHQRCVPRAEHPVYNMVMSDVTISCTSLEKEKREEVHKYVQMMGGRVYRDLNVSVTHLIAGEVGSKKYLVAANLKKPILLPSWIKTLWEKSQEKKITRYTDINMEDFKCPIFLGCIICVTGLCGLDRKEVQQLTVKHGGQYMGQLKMNECTHLIVQEPKGQKYECAKRWNVHCVTTQWFFDSIEKGFCQDESIYKTEPRPEAKTMPNSSTPTSQINTIDSRTLSDVSNISNINASCVSESICNSLNSKLEPTLENLENLDVSAFQAPEDLLDGCRIYLCGFSGRKLDKLRRLINSGGGVRFNQLNEDVTHVIVGDYDDELKQFWNKSAHRPHVVGAKWLLECFSKGYMLSEEPYIHANYQPVEIPVSHKPESKAALLKKKNSSFSKKDFAPSEKHEQADEDPPSQYENGSSTVVEAKTSEARPFNDSTHAEPLNDSTHISLQEENQSSVSHCVPDVSTITEEGLFSQKSFLVLGFSNENESNIANIIKENAGKIMSLLSRTVADYAVVPLLGCEVEATVGEVVTNTWLVTCIDYQTLFDPKSNPLFTPVPVMTGMTPLEDCVISFSQCAGAEKESLTFLANLLGASVQEYFVRKSNAKKGMFASTHLILKERGGSKYEAAKKWNLPAVTIAWLLETARTGKRADESHFLIENSTKEERSLETEITNGINLNSDTAEHP |  |  | 55
